Paper PMC7591262

Biological target: Wtf4^antidote-mCherry (S. kambucha)
Test: FRET or BRET

Wtf4^poison-GFP (natural protein)
FRET (acceptor photobleaching): 40%
